# Earlier results, collected in paper PMC11178655, “Dosimetry and pharmacokinetics of [^177Lu]Lu-satoreotide tetraxetan in patients with progressive neuroendocrine tumours” (European Journal of Nuclear Medicine and Molecular Imaging, 2024).
# Tests used:
# patients with NETs = conditions: human, in vivo; cited from earlier work
# From the text: In the present study, we observed tumour ADCs of 5.0 Gy/GBq after cycle 1 and 4.0 Gy/GBq after cycle 3. These tumour ADCs are consistent with previously reported findings from a direct comparison of [^177Lu]Lu-satoreotide tetraxetan and [^177Lu]Lu-DOTA-TATE in the same tumours and patients in a cross-over design, which reported median tumour dose of [^177Lu]Lu-satoreotide tetraxetan of 7.0 Gy/GBq (range: 4.2–29 Gy/GBq), 3.5 times greater than the median tumour dose of [^177Lu]Lu-DOTA-TATE [22]. However, it should be noted that median tumour dose in this pilot study was calculated from a limi ... || The median ADC of [^177Lu]Lu-satoreotide tetraxetan for the bone marrow using a blood-based approach was lower than reported in other [^177Lu]Lu-satoreotide tetraxetan studies. The result is, however, similar to the mean blood-based radiation ADCs for the bone marrow reported for [^177Lu]Lu-DOTA-TATE [32].
# [1] = in vivo; cited from earlier work
# From the text: In addition, consistent with their specific binding to SSTR, both [^177Lu]Lu-satoreotide tetraxetan and [^177Lu]Lu-DOTA-TATE predominantly show uptake in tumours, followed by the kidneys, spleen, and liver.
substance,measurement,setting,value
[^177Lu]Lu-DOTA-TATE,Blood-based bone marrow ADC,patients with NETs,≤ 0.02 Gy/GBq
same,Image-based bone marrow ADC,patients with NETs,up to 0.06 Gy/GBq
same,Median absorbed dose to the tumour,patients with NETs,4.6 Gy/GBq
same,Mean terminal blood half-life,[1],72 h
